Data set [1] concerns CCCCC/C=C\C\C=C/C=C/C=C/[C@@H](SC[C@H](NC(=O)CC[C@H](N)C(=O)O)C(=O)NCC(=O)O)[C@@H](O)CCCC(=O)O. In words: purified protein. The following applies: substrate binding site.
Data set [2] has as its system CSC[C@H](NC(=O)CC[C@H](N)C(=O)O)C(=O)NCC(=O)O. In words: glutamate release assay, Km of hydrolysis. In kind it is biochemical, Homo sapiens.
The test system of data set [3] is N[C@@H](CCC(=O)N[C@@H](CSCc1ccc([N+](=O)[O-])cc1)C(=O)NCC(=O)O)C(=O)O. Description: glutamate release assay, Km of hydrolysis. In kind it is biochemical, Homo sapiens.

For orientation: Km means the substrate concentration at which the rate is half of its maximum. Usually kcat stands for the number of substrate molecules converted per active site and unit of time at saturation. One may read the kcat/Km as the turnover number divided by the Michaelis constant.

Take “gamma-glutamyl transpeptidase (GGT1) (Homo sapiens)”: the Km came out at 10.8 ± 0.1 µM in data set [1], 9.90 ± 0.07 µM in data set [2] and 13.10 ± 0.05 µM in data set [3]. Moreover, the kcat in data set [1] turned out to be 88.3 s⁻¹; in data set [2], 95 ± 3.33 s⁻¹; in data set [3], 103 ± 6.67 s⁻¹. Also, the results for the kcat/Km in data set [1], in data set [2] and in data set [3] were 8.17e+06 M⁻¹ s⁻¹, 9.5e+06 ± 333000 M⁻¹ s⁻¹ and 7.83e+06 ± 500000 M⁻¹ s⁻¹, respectively.

The values are drawn from paper PMC3099546.
